US20100221257A1 (AstraZeneca / MedImmune, published 2010)

T1: human IL-1R1, endogenous on human cells (HeLa cells; whole blood) (human, UniProt P14778 18-569)
T1 sequence (looked up): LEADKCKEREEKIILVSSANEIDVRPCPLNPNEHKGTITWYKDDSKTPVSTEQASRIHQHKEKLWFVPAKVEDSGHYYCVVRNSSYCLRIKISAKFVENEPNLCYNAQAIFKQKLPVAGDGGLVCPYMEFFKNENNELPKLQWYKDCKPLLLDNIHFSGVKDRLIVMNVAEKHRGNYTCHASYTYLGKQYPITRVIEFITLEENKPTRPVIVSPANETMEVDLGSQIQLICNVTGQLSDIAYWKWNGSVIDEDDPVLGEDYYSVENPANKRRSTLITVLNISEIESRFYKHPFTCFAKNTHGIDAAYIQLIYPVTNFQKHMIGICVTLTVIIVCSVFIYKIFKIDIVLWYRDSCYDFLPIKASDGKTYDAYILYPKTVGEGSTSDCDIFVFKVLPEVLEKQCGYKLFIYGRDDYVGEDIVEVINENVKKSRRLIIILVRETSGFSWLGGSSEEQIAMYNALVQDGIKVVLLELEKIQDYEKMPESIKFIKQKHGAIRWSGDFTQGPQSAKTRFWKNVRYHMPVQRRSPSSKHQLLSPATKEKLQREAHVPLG

T2: human recombinant IL18R alpha/IL-1 R5/Fc (human, UniProt Q13478 19-329, limits assumed)
T2 construct: Bought; also called IL18R alpha Fc; not shown: Fc of the bought fusion protein, not described
T2 sequence (looked up): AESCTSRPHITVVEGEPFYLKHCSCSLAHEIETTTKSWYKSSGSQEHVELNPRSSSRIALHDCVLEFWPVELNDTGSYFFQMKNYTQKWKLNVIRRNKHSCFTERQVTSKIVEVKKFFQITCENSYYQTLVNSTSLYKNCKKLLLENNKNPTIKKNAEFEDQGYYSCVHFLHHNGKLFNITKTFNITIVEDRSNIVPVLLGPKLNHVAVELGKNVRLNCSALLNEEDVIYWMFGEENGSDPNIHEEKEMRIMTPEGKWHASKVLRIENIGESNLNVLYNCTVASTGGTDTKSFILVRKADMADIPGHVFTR

T3: human recombinant IL1sRII (human, UniProt P27930 14-343)
T3 construct: also called Human IL1sRII
T3 sequence (looked up): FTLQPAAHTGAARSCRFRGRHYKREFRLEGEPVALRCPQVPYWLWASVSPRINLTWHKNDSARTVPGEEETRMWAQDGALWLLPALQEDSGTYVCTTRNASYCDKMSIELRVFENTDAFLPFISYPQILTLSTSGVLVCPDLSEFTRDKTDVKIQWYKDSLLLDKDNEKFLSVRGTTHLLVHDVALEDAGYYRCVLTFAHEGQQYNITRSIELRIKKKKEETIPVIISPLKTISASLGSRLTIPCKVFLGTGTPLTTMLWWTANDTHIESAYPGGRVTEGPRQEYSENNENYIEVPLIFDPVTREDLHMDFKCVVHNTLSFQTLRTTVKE


Tests used:
[1] = target: T1, human IL-1R1, endogenous on human cells …; assay: cell-based or functional assay
[2] = target: T2, human recombinant IL18R alpha/IL-1 R5/Fc; assay: DELFIA epitope competition; no inhibition of biotinylated huIL-1RFc binding to the adsorbed IgG
Protocol: (§1) Titrations of non biotinylated purified human recombinant IL1sRII (R&D Systems), human recombinant IL-1R6/IL1 R rpt/Fc (R&D Systems), human recombinant IL18R alpha/IL-1 R5/Fc (R&D systems) and recombinant human IL-1 R4 (ST2)/Fc (R&D systems) were tested in each assay to establish the potency for each structurally related family member, as measured by IC₅₀ values in the assay.
(§2) Purified IgG were adsorbed onto 96-well Maxisorp microtitre plates (Nunc) in PBS at a concentration which gave a significant signal when biotinylated human HIS IL1RFc was added at approximately its estimated KD for that particular IgG. Excess IgG was washed away with PBS-Tween (0.1% v/v) and the wells were blocked with non-fat dried milk in PBS (3% w/v) for 1 h. […] Non-biotinylated human HIS IL1RFc was included as a positive control. 25 μl of this dilution series was added to the blocked IgG assay plate.
(§3) 25 μl of 1.4 nM biotinylated human HIS IL1RFc was added to the assay plate. The plate was then sealed and incubated at room temperature for 2 h. Unbound antigen was removed by washing with PBS-Tween (0.1% v/v), while the remaining biotinylated human IL1RFc was detected by streptavidin-Europium3+ conjugate (DELFIA® detection, PerkinElmer). Time-resolved fluorescence was measured at 620 nm on an EnVision plate reader (PerkinElmer). Fluorescence data was plotted as europium counts. IC₅₀ values were determined using GraphPad Prism software by curve fitting using a four-parameter logistic equation (Equation 3).

[3] = target: T3, human recombinant IL1sRII; assay: as above
Protocol: as §1, §2, §3

[4] = target: T1, human IL-1R1, endogenous on human cells …; assay: cell-based or functional assay; remark: listed apart in the source
[5] = target: T4, human histidine tagged (HIS) IL1RFc fusion protein (human); assay: HTRF receptor-ligand assay, IgG inhibiting HIS FLAG IL-1Ra binding to cryptate labelled human HIS IL1RFc
T4 construct: Biotinylated or cryptate labelled in some assays; also called human HIS IL1RFc; huIL-1R1-Fc
Protocol: The ability of lead antibodies to inhibit IL-1Ra to IL-1R1 was assessed in a receptor-ligand binding HTRF® (Homogeneous Time-Resolved Fluorescence) assay format for inhibition of HIS FLAG tagged human IL1Ra (In house, E. Coli expressed; HIS FLAG IL-1RA) binding to human histidine tagged (HIS) IL1RFc fusion protein (in house), as described in the Materials and methods section.
A titration of inhibitor was used in order to establish the clone potency as measured by IC₅₀ values in the assay. All dilutions were carried out in assay buffer as for ligand binding assay above. 5 μl of a titration of inhibitor was added to a 384 well low volume assay plate (Costar 3676). This was then followed by addition of 0.4 nM cryptate labelled HIS IL1RFc. Assay plates were then sealed and incubated at room temperature in dark for 1 hour.

| Binder | mean IC50 for the 6 donors, inhibition of IL-1β induced IL-6 production in human whole blood [1] [nM] | binding result [2] | binding result [3] | IC50, inhibition of IL-1β induced IL-6 production in human whole blood, donor 1 [4] [nM] | IC50, inhibition of IL-1β induced IL-6 production in human whole blood, donor 2 [4] [nM] | IC50, inhibition of IL-1β induced IL-6 production in human whole blood, donor 3 [4] [nM] | IC50, inhibition of IL-1β induced IL-6 production in human whole blood, donor 4 [4] [nM] | IC50, inhibition of IL-1β induced IL-6 production in human whole blood, donor 5 [4] [nM] | IC50, inhibition of IL-1β induced IL-6 production in human whole blood, donor 6 [4] [nM] | IC50 [5] [nM] |
| --- | --- | --- | --- | --- | --- | --- | --- | --- | --- | --- |
| Antibody 6GL IgG2 (antibody, V domains shown, Germlined IgG2, lambda light chain; also called Antibody 6 IgG2; 28PL GL) VH: not shown VL: QSVLTQPPSVSGAPGQRVTISCTGSSSNIGAGYDVHWYQQLPGTAPKLLIYGDTHRPSGVPDRFSGSKSGTSASLAITGLQAEDEADYYCQSYDTVRLHHVFGGGTKLTVL | 0.229 | no binding | no binding | 0.091 | 0.295 | 0.116 | 0.309 | 0.167 | 0.321 | 0.181 |
| Antibody 8GL IgG2 (antibody, V domains shown, Germlined IgG2, lambda light chain) VH: not shown VL: QSVLTQPPSVSGAPGQRVTISCTGSSSNIGAGYDVHWYQQLPGTAPKLLIYGDTHRPSGVPDRFSGSKSGTSASLAITGLQAEDEADYYCQSYDTHLVAHVFGGGTKLTVL |  | no binding | no binding |  |  |  |  |  |  | 0.363 |
| Antibody 10GL IgG2 (antibody, V domains shown, Germlined IgG2, lambda light chain) VH: not shown VL: QSVLTQPPSVSGAPGQRVTISCTGSSSNIGAGYDVHWYQQLPGTAPKLLIYGDTHRPSGVPDRFSGSKSGTSASLAITGLQAEDEADYYCQSYDTRADDAHFGGGTKLTVL |  | no binding | no binding |  |  |  |  |  |  | 0.323 |
